Sequences and labels used below:
B1: HpARI_CCP1/2 (HpARI with CCP3 truncated) (domain or fragment)
chain: AGQRCRFTDVERDKGYTGMLLKGRLRKTAGNGRTVELICGRGNHNYTCESGVLKESSPRQARCGCKGILEMLFDMPKEERPSPMYDSVTYDPTPNTPTTVGKDGIWNGVDYRNGSTVKPYCDTGPVINGSSKAVCVSGKWVPTLGVCPK
modifications: biotinylated with EZ-Link Sulfo-NHS-Biotin where immobilised for SPR
B2: Heligmosomoides polygyrus Alarmin Release Inhibitor (HpARI), full-length (natural protein)
chain: AGQRCRFTDVERDKGYTGMLLKGRLRKTAGNGRTVELICGRGNHNYTCESGVLKESSPRQARCGCKGILEMLFDMPKEERPSPMYDSVTYDPTPNTPTTVGKDGIWNGVDYRNGSTVKPYCDTGPVINGSSKAVCVSGKWVPTLGVCPKMCSIGSLKENGKFVDVTATTKGDELNPPPREQTLIPIVRKVDKDKVQHGVKVVALCKAEDSTTAAEGVQEFECDNGKWKPEPVPCP
modifications: biotinylated with EZ-Link Sulfo-NHS-Biotin where immobilised for SPR
B3: HpARI-LD (full-length HpARI with residues 180-188 of the CCP3 loop deleted) (natural protein)
chain: AGQRCRFTDVERDKGYTGMLLKGRLRKTAGNGRTVELICGRGNHNYTCESGVLKESSPRQARCGCKGILEMLFDMPKEERPSPMYDSVTYDPTPNTPTTVGKDGIWNGVDYRNGSTVKPYCDTGPVINGSSKAVCVSGKWVPTLGVCPKMCSIGSLKENGKFVDVTATTKGDELNPPPRKVDKDKVQHGVKVVALCKAEDSTTAAEGVQEFECDNGKWKPEPVPCP
modifications: biotinylated with EZ-Link Sulfo-NHS-Biotin where immobilised for SPR
B4: mouse Interleukin 33 (residues 112-270) (ligand)
chain: SIQGTSLLTQSPASLSTYNDQSVSFVLENGCYVINVDDSGKDQEQDQVLLRYYESPCPASQSGDGVDGKKVMVNMSPIKDTDIWLHANDKDYSVELQRGDVSPPEQAFFVLHKKSSDFVSFECKNLPGTYIGVKDNQLALVEEKDESCNNIMFKLSKI

Holding throughout (assay): SPR
On the technique in general: Surface plasmon resonance follows binding to a sensor surface in real time, without labels.

In assay [1] the target is B4.
Assay [2] concerns the target B4.
Assay [3] addresses T1, HpARI-N152 (HpARI with an N-linked glycan inserted at residue 152, interface A) (Heligmosomoides polygyrus bakeri, N-linked glycan at residue 152).
For assay [4], the target named is T2, HpARI point mutant of residue E70 (Heligmosomoides polygyrus bakeri, biotinylated with EZ-Link Sulfo-NHS-Biotin where immobilised for SPR).
For assay [5], the target named is T3, HpARI point mutant of residue Y112 (Heligmosomoides polygyrus bakeri, biotinylated with EZ-Link Sulfo-NHS-Biotin where immobilised for SPR).
Assay [6] deals with T4, HpARI point mutant of residue W107 (Heligmosomoides polygyrus bakeri, biotinylated with EZ-Link Sulfo-NHS-Biotin where immobilised for SPR).
The target in assay [7] is T1, HpARI-N152 (HpARI with an N-linked …). The source holds these as a separate data set.
The target of assay [8] is T2, HpARI point mutant of residue E70. This is another data set of the same source.
For assay [9], the target named is T3, HpARI point mutant of residue Y112. The source holds these as a separate data set.
The target in assay [10] is T4, HpARI point mutant of residue W107. This is another data set of the same source.

Where two headings read alike, the source gives them in different places.

In the case of B1, the dissociation rate constant (koff) (commonly the first-order rate constant of dissociation) in [1] came out at 0.00201 s⁻¹.
For the molecule B2, the koff in assay [1] was determined as 4.51e-05 s⁻¹.
Consider B3, for which binding in assay [2] was characterised by a dissociation constant (Kd) of 4.53 nM. For the same molecule, in [1], the koff amounted to 0.00296 s⁻¹.
Consider B4, for which the dissociation constant Kd – broadly, the constant that tells how readily two partners part at equilibrium – was 0.0474 nM in assay [3]; 0.31 nM in assay [4]; 0.528 nM in [5]; 1.18 nM in assay [6]; roughly 0.3 nM in assay [8]; roughly 0.5 nM in assay [9]. In assay [10], this molecule had an equilibrium dissociation constant (Kd) of roughly 1.2 nM. The off-rate constant (koff) in assay [4] amounted to 9.89e-05 s⁻¹; in assay [5] it was 9.33e-05 s⁻¹; in assay [6], 0.000162 s⁻¹; in [7], 6.12e-05 s⁻¹.

The record behind these values is article doi:10.1101/2023.08.10.552813 (2023).
